Laboratory results reported in patent US20170355750A1 (ACADEMIA SINICA, published 2017).

Columns and labels:
[1] = target: T1, HER2 on the surface of N87 cells (human, UniProt P04626); assay: flow cytometry on N87 cells; scFv detected with AL2-RFP (1:1 scFv:AL fragment); MFI adjusted over cells with AL2-RFP without scFv
T1 construct: full-length receptor on the cell surface
Method: (§1) Mean fluorescence intensities (MFIs) for the same set of scFvs complexed with AL2-RFP in 1:1 ratio of the scFv:AL fragment were measured with N87 (FIG. 10B), SKBR3 (FIG. 10D), BT474 (FIG. 10F), and MCF7 (FIG. 10H) cells by flow cytometry, where the MFIs shown in the y-axis were adjusted over the background value by the cells treated with AL2-RFP without scFv.
(§2) Cells were suspended by trypsin treatment and went through mesh 40-micron pore. About 2×10⁵ cells were incubated with 100 μL scFv at 4° C. for 30 minutes, then washed once with 0.5% FBS 1×PBS (wash buffer), mixed with 1.2 μg AL2-RFP in 50 μL wash buffer at 4° C. for 20 minutes, and then wash twice with washer buffer. After centrifugation and resuspension, cells were analyzed for RFP signal by FACS (BD FACS Canto II).

[2] = target: T2, HER2 on the surface of BT474 cells (human, UniProt P04626); assay: flow cytometry on BT474 cells; scFv detected with AL2-RFP (1:1 scFv:AL fragment); MFI adjusted over cells with AL2-RFP without scFv
T2 construct: full-length receptor on the cell surface
Method: as §1, §2

Row | Binder | binding result [1] | binding result [2]
1 | H32 scFv (scFv, also called scFv(H32)) scFv: DIQMTQSPSSLSASVGDRVTITCKASQNVGTAVAWYQQKPGKAPKLLIYSASNRYTGVPSRFSGSGSGTDFTLTISSLQPEDFATYYCQQYSSYPLAFGQGTKVEIKRGGGGSIEGRSGGGGSEVQLVESGGGLVQPGGSLRLSCKASGFNIKDYFMYWVRQAPGKGLEWVGWIDPENGNTIYDPKFQGRFTISADTSKNTAYLQMNSLRAEDTAVYYCTRGYYGSRVLAMDYWGQGTLVTVSSASAAA | binds | binds
2 | GH2-20 scFv (scFv) scFv: DIQMTQSPSSLSASVGDRVTITCRASQDVNNNVAWYQQKPGKAPKLLIYWTTYLYSGVPSRFSGSGSGTDFTLTISSLQPEDFATYYCQQGSNWPITFGQGTKVEIKRGGSSRSSSSGGGGSGGGGEVQLVESGGGLVQPGGSLRLSCAASGLTINDYGIHWVRQAPGKGLEWVASIGPSGGFTSYADSVKGRFTISADTSKNTAYLQMNSLRAEDTAVYYCARFVIYWGFFMDYWGQGTLVTVSSASAAA | binds | binds
3 | GH2-41 scFv (scFv) scFv: DIQMTQSPSSLSASVGDRVTITCRASQDVSNSVAWYQQKPGKAPKLLISGAAWLYSGVPSRFSGSGSGTDFTLTISSLQPEDFATYYCQQSGNFPLTFGQGTKVEIKRGGSSRSSSSGGGGSGGGGEVQLVESGGGLVQPGGSLRLSCAASGFTISNWGIHWVRQAPGKGLEWVASIGPSGGFTSYADSVKGRFTISADTSKNTAYLQMNSLRAEDTAVYYCARFYIYGGVIMDYWGQGTLVTVSSASAAA | binds | binds
4 | GH2-50 scFv (scFv) scFv: DIQMTQSPSSLSASVGDRVTITCRASQDVFYGVAWYQQKPGKAPKLLIFWTTYLYSGVPSRFSGSGSGTDFTLTISSLQPEDFATYYCQQYFNWPLTFGQGTKVEIKRGGSSRSSSSGGGGSGGGGEVQLVESGGGLVQPGGSLRLSCAASGFTINNDGIHWVRQAPGKGLEWVAAIGPFWGSTDYADSVKGRFTISADTSTNTAYLHMNSLRAEDTALYYCARFGNYYDGVMDYWGQGTLVTVSSASAAA | binds | binds
5 | GH2-61 scFv (scFv) scFv: DIQMTQSPSSLSASVGDRVTITCRASQDVGSNVAWYQQKPGKAPKLLISWSTSLYSGVPSRFSGSGSGTDFTLTISSLQPEDFATYYCQQYGGWPITFGQGTKVEIKRGGGGSIEGRSGGGGSEVQLVESGGGLVQPGGSLRLSCAASGFTINNWGIHWVRQAPGKGLEWVAGIWPYGGYTYYADSVKGRFTISADTSKNTAYLQMNSLRAEDTAVYYCARFYNHHGGVMDYWGQGTLVTVSSASAAA | binds | binds
